From US20180057581A1 (MorphoSys, published 2018)

Experiments:
Test in all cases: MSD specificity profiling, coated protein, Camille at 100 nM
[1] = biological target: T1, human M-CSF (human, UniProt P09603 33-255, limits assumed)
T1 construct: also called M-CSF (human); CSF-1
T1 sequence: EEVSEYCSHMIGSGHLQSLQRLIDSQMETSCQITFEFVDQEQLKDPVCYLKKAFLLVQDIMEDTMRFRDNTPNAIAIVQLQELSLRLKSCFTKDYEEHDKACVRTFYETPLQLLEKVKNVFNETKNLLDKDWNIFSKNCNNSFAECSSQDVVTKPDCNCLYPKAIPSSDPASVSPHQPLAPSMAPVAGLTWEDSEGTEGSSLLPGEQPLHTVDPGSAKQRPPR
Experimental: (§1) For this specificity profiling test the different proteins and controls were coated on two 384-well MSD plates with a concentration of 1 μg/ml at 4° C. over night. Plates were blocked with BSA and washed three times with PBS with 0.05% (v/v) Tween 20. Antibody samples were diluted to 100 nM and 10 nM in assay buffer (PBS with 0.5% (w/v) BSA, 0.05% (v/v) Tween 20). […] Samples and controls were incubated for three hours at room temperature. The plates were washed three times and 30 μl detection antibody (ECL-labeled anti-human Fab) were added per well and incubated for 1 h. After washing, MSD Read Buffer T with surfactant was added and electrochemiluminescence signals were detected using a Sector Imager 6000 (Meso Scale Discovery, Gaithersburg, Md., USA).

[2] = biological target: Serum albumin (human) (human, UniProt P02768 25-609)
Experimental: as §1

[3] = biological target: T2, Fibrinogen (bovine) (bovine, UniProt P02672 20-615; P02676 1-468; P12799 25-444)
T2 sequence (looked up) 1: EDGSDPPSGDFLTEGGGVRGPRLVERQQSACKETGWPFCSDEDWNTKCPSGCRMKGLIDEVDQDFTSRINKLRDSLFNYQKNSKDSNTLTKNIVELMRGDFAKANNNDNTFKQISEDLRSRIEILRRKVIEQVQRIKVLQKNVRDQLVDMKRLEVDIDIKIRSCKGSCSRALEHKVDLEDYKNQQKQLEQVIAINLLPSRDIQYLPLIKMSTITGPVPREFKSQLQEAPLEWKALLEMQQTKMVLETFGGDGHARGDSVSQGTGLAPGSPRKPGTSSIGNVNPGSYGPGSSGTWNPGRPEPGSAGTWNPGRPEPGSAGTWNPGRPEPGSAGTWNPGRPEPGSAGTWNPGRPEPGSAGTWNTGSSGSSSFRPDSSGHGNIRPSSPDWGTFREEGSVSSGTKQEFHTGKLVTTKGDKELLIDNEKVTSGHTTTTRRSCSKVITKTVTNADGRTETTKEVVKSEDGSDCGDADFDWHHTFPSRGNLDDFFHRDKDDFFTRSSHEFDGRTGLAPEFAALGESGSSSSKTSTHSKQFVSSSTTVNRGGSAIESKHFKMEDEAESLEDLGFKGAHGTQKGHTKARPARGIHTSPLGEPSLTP
T2 sequence (looked up) 2: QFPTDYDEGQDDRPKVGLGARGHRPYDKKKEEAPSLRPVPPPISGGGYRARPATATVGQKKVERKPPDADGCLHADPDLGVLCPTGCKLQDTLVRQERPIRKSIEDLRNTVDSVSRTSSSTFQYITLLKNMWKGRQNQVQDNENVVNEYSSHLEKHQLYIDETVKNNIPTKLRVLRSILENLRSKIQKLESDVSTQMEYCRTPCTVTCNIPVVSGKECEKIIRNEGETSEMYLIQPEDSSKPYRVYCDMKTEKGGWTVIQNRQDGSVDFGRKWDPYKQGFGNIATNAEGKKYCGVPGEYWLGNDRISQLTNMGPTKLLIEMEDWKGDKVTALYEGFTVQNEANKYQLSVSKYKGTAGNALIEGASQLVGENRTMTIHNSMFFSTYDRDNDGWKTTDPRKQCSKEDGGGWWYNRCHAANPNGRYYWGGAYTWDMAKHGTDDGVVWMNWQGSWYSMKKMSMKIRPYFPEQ
T2 sequence (looked up) 3: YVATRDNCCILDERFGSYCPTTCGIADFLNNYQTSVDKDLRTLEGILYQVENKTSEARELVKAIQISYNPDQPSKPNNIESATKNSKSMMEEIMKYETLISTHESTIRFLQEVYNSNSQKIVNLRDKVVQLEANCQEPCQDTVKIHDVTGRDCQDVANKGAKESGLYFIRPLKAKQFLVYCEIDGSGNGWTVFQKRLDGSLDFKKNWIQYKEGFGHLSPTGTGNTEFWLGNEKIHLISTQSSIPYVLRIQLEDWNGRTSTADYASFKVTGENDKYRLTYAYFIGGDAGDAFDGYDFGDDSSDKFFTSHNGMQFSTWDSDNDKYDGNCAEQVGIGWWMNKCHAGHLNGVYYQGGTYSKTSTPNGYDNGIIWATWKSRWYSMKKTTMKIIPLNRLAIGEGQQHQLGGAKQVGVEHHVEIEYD
Experimental: as §1

[4] = biological target: Transferrin (bovine) (bovine, UniProt Q29443 20-704)
Experimental: as §1

[5] = biological target: Lysozyme (chicken) (chicken, UniProt P00698 19-147)
Experimental: as §1

[6] = biological target: Cell surface receptor 1 (human) (human)
Experimental: as §1

[7] = biological target: Cytokine 1 (human) (human)
Experimental: as §1

[8] = biological target: Aminogylcosidase (Aspergillus niger) (Aspergillus niger)
Experimental: as §1

[9] = biological target: Myoglobin (horse) (horse, UniProt P68082 2-154)
Experimental: as §1

[10] = biological target: T3, RNase B (cow) (cow, UniProt P61823 27-150)
T3 sequence (looked up): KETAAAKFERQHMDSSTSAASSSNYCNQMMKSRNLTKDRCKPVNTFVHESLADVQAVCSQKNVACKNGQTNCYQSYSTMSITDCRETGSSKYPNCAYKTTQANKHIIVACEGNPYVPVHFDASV
Experimental: as §1

[11] = biological target: T4, RNase A (cow) (cow, UniProt P61823 27-150)
T4 sequence (looked up): T3 sequence (looked up)
Experimental: as §1

[12] = biological target: Anti-human Fab (Dianova, # 109-005-097)
Experimental: as §1

Sequence of Transferrin (bovine) (Q29443 20-704 limits assumed): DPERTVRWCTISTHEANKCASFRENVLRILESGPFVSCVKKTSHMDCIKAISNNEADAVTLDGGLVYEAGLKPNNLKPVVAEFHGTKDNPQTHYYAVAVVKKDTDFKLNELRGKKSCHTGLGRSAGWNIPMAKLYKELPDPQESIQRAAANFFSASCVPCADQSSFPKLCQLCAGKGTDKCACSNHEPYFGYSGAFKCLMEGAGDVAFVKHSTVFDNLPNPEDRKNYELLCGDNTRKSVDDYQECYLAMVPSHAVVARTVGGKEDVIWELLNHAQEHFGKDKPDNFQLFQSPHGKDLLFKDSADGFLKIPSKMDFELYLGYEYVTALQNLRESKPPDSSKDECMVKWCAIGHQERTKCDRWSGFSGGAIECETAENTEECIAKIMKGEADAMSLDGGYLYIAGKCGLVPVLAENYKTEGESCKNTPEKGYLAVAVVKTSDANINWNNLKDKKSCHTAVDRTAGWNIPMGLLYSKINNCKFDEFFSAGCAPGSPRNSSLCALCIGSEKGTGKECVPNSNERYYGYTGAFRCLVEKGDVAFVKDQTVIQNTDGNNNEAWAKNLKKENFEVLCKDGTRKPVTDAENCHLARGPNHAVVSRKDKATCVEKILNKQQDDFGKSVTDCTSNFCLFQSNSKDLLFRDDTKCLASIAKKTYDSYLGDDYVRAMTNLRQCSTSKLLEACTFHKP
Sequence of Aminogylcosidase (Aspergillus niger) (Aspergillus niger) (P69328 25-640): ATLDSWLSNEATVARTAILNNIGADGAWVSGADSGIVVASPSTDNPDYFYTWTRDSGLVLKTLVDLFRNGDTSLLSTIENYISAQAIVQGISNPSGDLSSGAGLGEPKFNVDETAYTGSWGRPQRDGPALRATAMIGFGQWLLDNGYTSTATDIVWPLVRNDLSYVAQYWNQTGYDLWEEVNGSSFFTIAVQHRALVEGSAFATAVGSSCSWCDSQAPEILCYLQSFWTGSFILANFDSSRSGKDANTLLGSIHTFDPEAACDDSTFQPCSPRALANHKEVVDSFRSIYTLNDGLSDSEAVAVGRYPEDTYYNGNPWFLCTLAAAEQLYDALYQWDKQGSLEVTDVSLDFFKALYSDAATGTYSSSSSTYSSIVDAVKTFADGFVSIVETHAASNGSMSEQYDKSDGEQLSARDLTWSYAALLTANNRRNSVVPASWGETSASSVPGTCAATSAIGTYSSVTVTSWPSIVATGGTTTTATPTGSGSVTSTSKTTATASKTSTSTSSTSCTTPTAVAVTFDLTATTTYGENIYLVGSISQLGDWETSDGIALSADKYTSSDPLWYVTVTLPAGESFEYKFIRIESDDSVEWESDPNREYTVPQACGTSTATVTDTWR
Sequence of Lysozyme (chicken) (P00698 19-147): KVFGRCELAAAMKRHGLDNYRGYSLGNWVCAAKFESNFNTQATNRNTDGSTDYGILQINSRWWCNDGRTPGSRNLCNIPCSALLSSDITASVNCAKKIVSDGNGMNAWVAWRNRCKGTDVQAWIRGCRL
Sequence of Myoglobin (horse) (P68082 2-154 limits assumed): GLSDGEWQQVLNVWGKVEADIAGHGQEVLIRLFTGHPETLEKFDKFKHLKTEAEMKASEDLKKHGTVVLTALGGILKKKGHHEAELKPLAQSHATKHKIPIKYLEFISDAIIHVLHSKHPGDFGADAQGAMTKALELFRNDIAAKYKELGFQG

B1: Camille (format not stated) (antibody, V domains shown)
VH: QVQLQQSGPGLVKPSQTLSLTCAISGESVSTSSAAWNWIRQSPSRGLEWLGRTYYRSKWKHEYAVSVKSRITINPDTSKNQFSLQLNSVTPEDTAVYYCARDRYYYSAFDYWGQGTLVTVSS
VL: QSALTQPASVSGSPGQSITISCTGTSSDVGGYNSVSWYQQHPGKAPKLLIYAVSNRPSGVSNRFSGSKSGNTASLTISGLQAEDEADYYCASYDERFTRVFGGGTKLTVLG
notes: also called Antibody Camille
signal normalized to reference antibody MOR03207 [1]: 24 ratio
signal normalized to reference antibody MOR03207 [2]: 1 ratio
signal normalized to reference antibody MOR03207 [3]: 1 ratio
signal normalized to reference antibody MOR03207 [4]: 1 ratio
signal normalized to reference antibody MOR03207 [5]: 0 ratio
signal normalized to reference antibody MOR03207 [6]: 1 ratio
signal normalized to reference antibody MOR03207 [7]: 1 ratio
signal normalized to reference antibody MOR03207 [8]: 1 ratio
signal normalized to reference antibody MOR03207 [9]: 1 ratio
signal normalized to reference antibody MOR03207 [10]: 1 ratio
signal normalized to reference antibody MOR03207 [11]: 1 ratio
signal normalized to reference antibody MOR03207 [12]: 1 ratio
